Drawing on PMC3912051, this text covers fold repression of a Gal4-site luciferase reporter by Gal4-XFIN-KRAB-AB in EPC fish cells with co-transfected human TRIM28 (negligible without it) and Kd for two substances.

For orientation: Kd means a measure of binding affinity in units of concentration.

In test [1] the target is TRIM28 (endogenous human TRIM28 protein) (human (endogenous in HeLa)) (UniProt Q13263).
For test [2], the target named is ZNF10 KRAB-AB KRAB-AB (Homo sapiens) (UniProt P21506). The conditions noted are these: cited from earlier work.
Chain of ZNF10 KRAB-AB KRAB-AB (Homo sapiens) (P21506 14-85): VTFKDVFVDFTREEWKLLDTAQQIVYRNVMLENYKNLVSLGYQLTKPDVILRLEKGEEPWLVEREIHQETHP

Chain of TRIM28 (endogenous human TRIM28 protein) (human (endogenous in HeLa)) (Q13263 whole entry): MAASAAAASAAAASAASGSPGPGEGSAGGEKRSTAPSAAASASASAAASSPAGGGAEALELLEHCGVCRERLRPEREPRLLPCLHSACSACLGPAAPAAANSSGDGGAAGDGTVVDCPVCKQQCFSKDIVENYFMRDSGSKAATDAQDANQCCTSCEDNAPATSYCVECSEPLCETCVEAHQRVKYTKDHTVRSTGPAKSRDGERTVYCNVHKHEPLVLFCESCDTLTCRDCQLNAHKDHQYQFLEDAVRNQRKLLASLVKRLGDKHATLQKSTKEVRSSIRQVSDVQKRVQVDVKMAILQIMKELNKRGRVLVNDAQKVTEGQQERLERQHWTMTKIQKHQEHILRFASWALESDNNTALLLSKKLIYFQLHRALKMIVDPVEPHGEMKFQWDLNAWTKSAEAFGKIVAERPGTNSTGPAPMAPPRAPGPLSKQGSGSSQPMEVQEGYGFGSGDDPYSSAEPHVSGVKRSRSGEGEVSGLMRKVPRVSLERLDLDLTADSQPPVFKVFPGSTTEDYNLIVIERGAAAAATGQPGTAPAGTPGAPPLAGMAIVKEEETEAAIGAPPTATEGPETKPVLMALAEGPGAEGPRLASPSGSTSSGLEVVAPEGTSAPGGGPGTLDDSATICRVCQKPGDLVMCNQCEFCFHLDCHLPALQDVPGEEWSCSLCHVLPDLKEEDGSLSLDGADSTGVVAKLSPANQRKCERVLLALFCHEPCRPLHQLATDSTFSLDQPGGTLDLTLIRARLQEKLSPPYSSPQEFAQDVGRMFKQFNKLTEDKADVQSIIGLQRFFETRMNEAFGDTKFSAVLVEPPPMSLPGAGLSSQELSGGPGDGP
Chain of TRIM28 (Q13263 2-835): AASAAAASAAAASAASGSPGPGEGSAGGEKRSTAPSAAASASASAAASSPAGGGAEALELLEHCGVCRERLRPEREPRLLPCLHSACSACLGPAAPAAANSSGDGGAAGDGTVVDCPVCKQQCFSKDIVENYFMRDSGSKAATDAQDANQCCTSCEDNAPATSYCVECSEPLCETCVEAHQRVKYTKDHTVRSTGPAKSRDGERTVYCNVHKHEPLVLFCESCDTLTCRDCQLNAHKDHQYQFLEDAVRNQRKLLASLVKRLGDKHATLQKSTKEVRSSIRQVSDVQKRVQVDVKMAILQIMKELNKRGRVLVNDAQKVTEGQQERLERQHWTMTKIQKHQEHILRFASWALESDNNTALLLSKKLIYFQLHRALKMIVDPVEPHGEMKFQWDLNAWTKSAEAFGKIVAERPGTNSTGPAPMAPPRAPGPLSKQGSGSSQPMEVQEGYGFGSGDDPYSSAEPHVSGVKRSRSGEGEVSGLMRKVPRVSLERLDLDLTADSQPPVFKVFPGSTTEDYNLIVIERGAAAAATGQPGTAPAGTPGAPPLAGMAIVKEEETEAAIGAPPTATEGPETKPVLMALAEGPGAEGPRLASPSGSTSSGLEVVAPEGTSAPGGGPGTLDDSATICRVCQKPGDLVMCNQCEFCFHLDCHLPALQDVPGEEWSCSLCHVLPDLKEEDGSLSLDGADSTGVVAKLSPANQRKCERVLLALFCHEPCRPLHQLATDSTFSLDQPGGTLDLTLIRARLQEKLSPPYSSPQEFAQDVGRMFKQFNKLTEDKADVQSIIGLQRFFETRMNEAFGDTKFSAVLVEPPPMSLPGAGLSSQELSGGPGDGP

“GST-XFIN-KRAB-AB (corrected KRAB-AB domain of Xenopus laevis XFIN fused to glutathione S-transferase) (domain or fragment)”: the fold repression of a Gal4-site luciferase reporter by Gal4-XFIN-KRAB-AB in EPC fish cells with co-transfected human TRIM28 (negligible without it) in test [1] is 2 fold.
Turning to TRIM28 (from UniProt Q13263), in test [2], the Kd was 142 nM.
